The values that follow are results of earlier work, collected in article PMC4160827.

In the data set the target is HIF-1α CODD (Homo sapiens) (UniProt Q16665).

PHD2 (from UniProt Q9GZT9): the dissociation constant (Kd) (as a rule, the concentration at which binding is half-saturated) is 14 µM.
